From patent US11427643B2, “Targeted protein degradation” (GLAXOSMITHKLINE INTELLECTUAL PROPERTY DEVELOPMENT LIMITED, priority 2017, dated 2022)

What was measured:
[1] = tested on: primary T-cells co-cultured with ARH-77-10B5 cells; experiment: Cytokine release from CAR-transduced primary T-cells co-cultured with BCMA-expressing ARH-77-10B5 cells, with or without lenalidomide (MSD V-plex); type: cell-based, human; settings: 10 μM lenalidomide compared with no lenalidomide treatment; after antigen presentation, 24 h co-culture 1:1 with ARH-77-10B5; FIG. 7
Procedure: For lentiviral vector production, 3.0×10^7 LentiX 293T (HEK 293T) cells were seeded in 20 mL DMEM (Gibco) and were incubated overnight at 37° C. with 5% CO2. LentiX cells were transfected by mixing, for example, 21 μg of transfer vector containing the construct, 3.75 μg ViraSafe pRSV-Rev, 5.25 μg ViraSafe pCMV-VSVG, 7.5 μg ViraSafe pCgp V-(gag-pol), 75 μg jetPRIME (Polyplus) and […] jetPRIME Buffer (Polyplus). After 2 days, supernatants were clarified and virus was concentrated and purified by ultracentrifugation on a 20% sucrose cushion using Ultrapure sucrose (ThermoFisher) in 50 ml Oak Ridge PPCO ultracentrifugation tubes (ThermoFisher). Lentiviral vectors were produced for CONSTRUCT 4 and CONSTRUCT 5 using the method described above. […]
7 days after transduction, lenalidomide at a stock concentration of 10 mM in 100% DMSO was diluted in TEXMacs media to achieve a stock concentration of 250 μM, and 5×10^4 T-cells were incubated at a final compound concentration of 10 μM or 0 μM (DMSO in media) for 16 h at 37° C. with 5% CO2. […] Supernatants were analysed for cytokine levels using MSD V-plex Proinflammatory Panel 1 Human Kit (MSD) and MSD Sector Imager (MSD).

NFAT-luc2 Jurkat cells = experiment: Lenalidomide-induced degradation of anti-BCMA CAR constructs transfected in Jurkat cells (flow cytometry, BCMA-Fc staining); type: cell-based; settings: 10 μM lenalidomide vs DMSO, 24 hour, FIG. 5
Procedure: NFAT-luc2 Jurkat cells (Promega) to a density of 2×10^5 cells/ml were cultured in RPMI medium 1640 (1×) without L-glutamine with phenol red (Gibco), 10% (v/v) Fetal Bovine Serum (FBS) Heat-Inactivated (Gibco), 1% (v/v) Minimum essential medium non-essential amino acids (MEM NEAA) (ThermoFisher), 1% (v/v) Sodium Pyruvate (Sigma), 1% (v/v) L-Glutamine (Gibco). 20 μg of plasmid DNA was mixed with 8×10^6 NFAT-luc2 Jurkat cells and cells were transfected using the 4D-Nucleofector (Lonza) with cell Line SE Nucleofector kit (Lonza) by following manufacturer instructions with program CL-120. Cells were incubated at 37° C. with 5% CO2 for 48 h. Lenalidomide at a stock concentration of 10 mM in 100% DMSO was diluted in Jurkat media to achieve a stock concentration of 250 μM. Using the 250 μM stock, NFAT-luc2 Jurkat cells were incubated at a final compound concentration of 10 μM or 0 μM (DMSO in media) for 24 hour at 37° C. with 5% CO2. Final DMSO concentration was 0.1% in all wells. Cells were then stained with AlexaFluor 647 conjugated BCMA-Fc to label the anti-BCMA CAR. Measurements were made using a Cytoflex S (Beckman Coulter) and data analysed using FlowJo.

B1: CONSTRUCT 4: conventional anti-BCMA CAR: scFv, CD8a hinge and transmembrane, 4-1BB co-stimulatory, CD3 intracellular domains; no degron (control) (protein)
chain: MALPVTALLLPLALLLHAARPQVQLVQSGAEVKKPGSSVKVSCKGSGYTFTNYWMHWVRQAPGQGLEWIGATYRGHSDTYYNQKFKGRATLTADTSTSTAYMELSSLRSEDTAVYYCTRGAIYDGYDVLDNWGQGTLVTVSSGGGGSGGGGSGGGGSGGGGSDIQMTQSPSSLSASVGDRVTITCSASQDISNYLNWYQQKPGKAPKLLIYYTSNLHSGVPSRFSGSGSGTDFTLTISSLQPEDFATYYCQQYRKLPWTFGQGTKLEIKRFVPVFLPAKPTTTPAPRPPTPAPTIASQPLSLRPEACRPAAGGAVHTRGLDFACDIYIWAPLAGTCGVLLLSLVITLYCNHRNKRGRKKLLYIFKQPFMRPVQTTQEEDGCSCRFPEEEEGGCELRVKFSRSADAPAYQQGQNQLYNELNLGRREEYDVLDKRRGRDPEMGGKPRRKNPQEGLYNELQKDKMAEAYSEIGMKGERRRGKGHDGLYQGLSTATKDTYDALHMQALPPR
modifications: Construct 4 Amino Acid Sequence
- TNFα, IL2 and IFN-γ levels in T-cell supernatants [1]: increased levels of cytokines concentrations
- expression level of CAR molecules on the surface of Jurkat cells (NFAT-luc2 Jurkat cells): unaffected
